Measured values published in patent US20130164299A1.

Columns and labels:
[1] = biological target: lectin-like transcript 1 (LLT1), recombinantly expressed on cells (human) (UniProt Q9UHP7); assay: cell-based or functional assay
[2] = biological target: LLT1-Fc fusion protein (human) (UniProt Q9UHP7); assay: ELISA, coated LLT1-Fc, direct detection of the Fc portion
[3] = biological target: CLEC2A-Fc protein (UniProt Q6UVW9); assay: ELISA, coated CLEC2A-Fc, direct detection of the Fc portion
[4] = biological target: CLEC2D iso2-Fc; assay: ELISA, coated CLEC2D iso2-Fc, direct detection of the Fc portion
[5] = biological target: CLEC2D iso4-Fc; assay: ELISA, coated CLEC2D iso4-Fc, direct detection of the Fc portion
[6] = biological target: LLT1-Fc fusion protein (human) (UniProt Q9UHP7); assay: ELISA, coated LLT1-Fc, anti-mIg-HRP detection
[7] = biological target: CLEC2A-Fc protein (UniProt Q6UVW9); assay: ELISA, coated CLEC2A-Fc, anti-mIg-HRP detection
[8] = biological target: CLEC2D iso2-Fc; assay: ELISA, coated CLEC2D iso2-Fc, anti-mIg-HRP detection
[9] = biological target: CLEC2D iso4-Fc; assay: ELISA, coated CLEC2D iso4-Fc, anti-mIg-HRP detection
[10] = biological target: CD20 on C1R and C1R-LLT1 cells (UniProt P11836); assay: cell-based or functional assay
Chain of CD20 on C1R and C1R-LLT1 cells (P11836 whole entry): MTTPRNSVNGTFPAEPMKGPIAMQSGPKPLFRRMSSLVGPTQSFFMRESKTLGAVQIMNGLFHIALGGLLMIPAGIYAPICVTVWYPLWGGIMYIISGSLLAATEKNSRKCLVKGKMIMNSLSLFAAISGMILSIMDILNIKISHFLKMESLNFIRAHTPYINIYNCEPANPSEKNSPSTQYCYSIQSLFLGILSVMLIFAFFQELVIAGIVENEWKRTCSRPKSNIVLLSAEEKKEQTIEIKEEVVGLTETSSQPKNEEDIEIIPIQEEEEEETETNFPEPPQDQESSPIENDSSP

[11] = biological target: CD161, on cells (UniProt Q12918); assay: cell-based or functional assay

Chain of lectin-like transcript 1 (LLT1), recombinantly expressed on cells (human) (Q9UHP7 whole entry, the tested form may be a part): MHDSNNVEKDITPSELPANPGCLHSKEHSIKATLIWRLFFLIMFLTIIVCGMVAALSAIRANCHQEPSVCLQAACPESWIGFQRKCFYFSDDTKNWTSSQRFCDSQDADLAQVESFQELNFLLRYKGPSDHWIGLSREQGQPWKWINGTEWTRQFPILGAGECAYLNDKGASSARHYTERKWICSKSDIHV
Chain of LLT1-Fc fusion protein (human) (Q9UHP7 60-191 limits assumed): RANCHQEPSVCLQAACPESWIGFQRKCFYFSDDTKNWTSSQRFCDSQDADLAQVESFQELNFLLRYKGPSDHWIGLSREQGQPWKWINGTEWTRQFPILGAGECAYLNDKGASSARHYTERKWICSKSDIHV
Chain of CLEC2A-Fc protein (Q6UVW9 49-174): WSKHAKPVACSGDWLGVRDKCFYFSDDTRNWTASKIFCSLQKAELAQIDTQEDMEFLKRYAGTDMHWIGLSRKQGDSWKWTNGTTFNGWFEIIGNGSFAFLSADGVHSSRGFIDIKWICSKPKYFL

AF3480 (antibody)
% CD107a+ NK cells (NK cells + C1R-LLT1) [1]: 5.3%
% IFN-γ+ NK cells (NK cells + C1R-LLT1) [1]: 3.3%

HRP-conjugated anti-human Ig antibody
OD [2]: 1.08 OD
OD [3]: 1.15 OD
OD [4]: 1.01 OD
OD [5]: 1.04 OD

MAB3480 (antibody)
% CD107a+ NK cells (NK cells + C1R-LLT1) [1]: 4.7%
% IFN-γ+ NK cells (NK cells + C1R-LLT1) [1]: 3%
OD [6]: 1.21 OD
OD [7]: 0.104 OD
OD [8]: 0.117 OD
OD [9]: 0.112 OD

anti-CD20 (rituximab) (antibody)
ADCC: specific lysis of C1R and C1R-LLT1 cells by NK cells (chromium release); antibody concentration giving lysis [10]: > 0.16 mg/mL

anti-CD161 mAb 191B8 (antibody)
% CD107a+ NK cells (NK cells + C1R-LLT1) [11]: 13.2%
% IFN-γ+ NK cells (NK cells + C1R-LLT1) [11]: 7.4%

anti-CD161 mAb DX12 (antibody)
% CD107a+ NK cells (NK cells + C1R-LLT1) [11]: 8.1%
% IFN-γ+ NK cells (NK cells + C1R-LLT1) [11]: 5.4%

anti-CD161 mAb HP3G10 (antibody)
% CD107a+ NK cells (NK cells + C1R-LLT1) [11]: 9.5%
% CD107a+ NK cells, Raji target cells (no mAb 10.3) [11]: 13.1%
% CD107a+ NK cells, Ramos target cells (no mAb 8.1) [11]: 10.9%
% CD107a+ NK cells, SUDHL4 target cells (no mAb 11.6) [11]: 17.5%
% IFN-γ+ NK cells (NK cells + C1R-LLT1) [11]: 5.3%
